Molecular target: the molecule itself
Test: native MS

B1: subunit K of the Enterococcus hirae rotary ATPase (K10 membrane ring) (natural protein)
chain: MMDYLITQNGGMVFAVLAMATATIFSGIGSAKGVGMTGEAAAALTTSQPEKFGQALILQLLPGTQGLYGFVIAFLIFINLGSDMSVVQGLNFLGASLPIAFTGLFSGIAQGKVAAAGIQILAKKPEHATKGIIFAAMVETYAILGFVISFLLVLNA
  stoichiometry N: 10
